Measurements published in US20260242478A1 (published 2026).
Where no end group is shown, it is not given here.

Legend:
PSMA Fab (006 PSMA Fab) [1] = biological target: T1, PSMA Fab (006 PSMA Fab); experiment: phage ELISA; PSMA Fab on plate pre-incubated with PSMA antigen as competitor, anti-M13 HRP detection;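 note: crude clonal phage supernatants added to Fab-coated wells still holding PSMA antigen in blocking buffer, with bound phage as read-out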
T1 construct: In the phage ELISA the PSMA Fab was biotinylated and captured on neutravidin coated plates; also called Anti-PSMA Fab; anti-PSMA Fab
Method: (§1) Clonal phage were harvested as crude supernatants and screened via standard ELISAs. […] Prior to the addition of clonal phage. wells were incubated with blocking buffer and PSMA antigen or blocking buffer alone. Without washing or aspirating, clonal phage supernatants were then added to the wells and incubated for a short time. Wells were then washed followed by detection of bound phage using a horse radish conjugated anti-M13 antibody.

PSMA Fab (006 PSMA Fab) [2] = biological target: T1, PSMA Fab (006 PSMA Fab); experiment: phage ELISA; biotinylated PSMA Fab on neutravidin plate, clonal phage supernatant, anti-M13 HRP detection;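 note: wells preincubated with PSMA antigen in blocking buffer or with blocking buffer only before clonal phage were added for a short incubation, then bound phage detected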
Method: as §1

[3] = biological target: T2, Anti-CD28 Fab (SEQ ID NOs: 696, 697); experiment: phage ELISA on plate-bound anti-CD28 Fab pre-incubated with CD28 antigen as competitor
T2 construct: In the phage ELISA the Fab was biotinylated and captured on neutravidin coated plates
Method: (§2) Clonal phage were harvested as crude supematants and screened via standard ELISAs. […] Prior to the addition of clonal phage, wells were incubated with blocking buffer and CD28 antigen or blocking buffer alone. Without washing or aspirating, clonal phage supematants were then added to the wells and incubated for a short time. Wells were then washed followed by detection of bound phage using a horse radish conjugated anti-M13 antibody.

[4] = biological target: T2, Anti-CD28 Fab (SEQ ID NOs: 696, 697); experiment: phage ELISA; clonal phage supernatant on biotinylated anti-CD28 Fab captured on neutravidin plate, anti-M13-HRP detection
Method: as §2

PSMA Fab (006 PSMA Fab) [5] = biological target: T3, PSMA Fab (006 PSMA Fab) (biotinylated for capture on neutravidin plates (site not stated)); experiment: clonal phage ELISA on biotinylated PSMA Fab captured on neutravidin plates, anti-M13-HRP detection;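 note: crude clonal phage supernatants added to wells preincubated with PSMA antigen or with blocking buffer only (no wash between), briefly incubated, then washed before detecting bound phage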
T3 construct: also called Anti-PSMA Fab

PSMA Fab (006 PSMA Fab) [6] = biological target: T3, PSMA Fab (006 PSMA Fab); experiment: clonal phage ELISA on captured PSMA Fab pre-incubated with PSMA antigen as competitor, anti-M13-HRP detection;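 note: wells blocked with buffer plus PSMA antigen before phage addition, with blocking buffer alone as the no-competitor control, bound phage detected after washing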
Method: as §1

T2 sequence (VH, as listed by the source, chain 1 of 2): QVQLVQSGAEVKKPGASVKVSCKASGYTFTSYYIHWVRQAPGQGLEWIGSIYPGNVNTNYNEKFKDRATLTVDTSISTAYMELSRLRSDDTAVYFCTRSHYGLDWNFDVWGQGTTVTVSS
T2 sequence (VL, as listed by the source, chain 2 of 2): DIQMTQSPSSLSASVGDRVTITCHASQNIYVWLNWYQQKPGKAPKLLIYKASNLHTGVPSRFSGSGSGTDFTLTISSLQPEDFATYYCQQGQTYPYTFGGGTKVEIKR

GVNWCVPPWMCLND [Phage-2823 (Peptide-180 library clone)]
phage binding ELISA signal (Anti-PSMA Fab, PSMA antigen present) (PSMA Fab (006 PSMA Fab) [1]): 0.0879
Phage binding ELISA signal, Anti-PSMA Fab (PSMA Fab (006 PSMA Fab) [2]): 0.484

MCAAGFHYPWPACL (cysteine pairing not given here; also: fused to phage pIII protein) [Phage-1374 peptide (SEQ ID NO: 1670)]
Anti-CD28 Fab signal in the presence of CD28 (phage binding ELISA) [3]: 0.1
Anti-CD28 Fab signal (phage binding ELISA) [4]: 2.23

LEKWCIPSQLCQLD [Phage-2827 (Peptide-180 library clone)]
phage binding ELISA signal (Anti-PSMA Fab, PSMA antigen present) (PSMA Fab (006 PSMA Fab) [1]): 0.0743
Phage binding ELISA signal, Anti-PSMA Fab (PSMA Fab (006 PSMA Fab) [2]): 0.464

MDIWCKPRWMCEEY [Phage-2810]
Phage binding ELISA signal, Anti-PSMA Fab (PSMA Fab (006 PSMA Fab) [5]): 0.562
Phage binding ELISA signal, Anti-PSMA Fab in presence of PSMA (PSMA Fab (006 PSMA Fab) [6]): 0.0676

EVKWCTPYWMCIDT [Phage-2833 (Peptide-180 library clone)]
phage binding ELISA signal (Anti-PSMA Fab, PSMA antigen present) (PSMA Fab (006 PSMA Fab) [1]): 0.072
Phage binding ELISA signal, Anti-PSMA Fab (PSMA Fab (006 PSMA Fab) [2]): 0.443

EGKWCTPTWMCQGF [Phage-2804]
Phage binding ELISA signal, Anti-PSMA Fab (PSMA Fab (006 PSMA Fab) [5]): 0.57
Phage binding ELISA signal, Anti-PSMA Fab in presence of PSMA (PSMA Fab (006 PSMA Fab) [6]): 0.0945

VTKLCIPEWMCVIQ [Phage-2809]
Phage binding ELISA signal, Anti-PSMA Fab (PSMA Fab (006 PSMA Fab) [5]): 0.562
Phage binding ELISA signal, Anti-PSMA Fab in presence of PSMA (PSMA Fab (006 PSMA Fab) [6]): 0.0595

TCAAGANWEWPWCF [Phage-1375 peptide (SEQ ID NO: 1671)]
Anti-CD28 Fab signal in the presence of CD28 (phage binding ELISA) [3]: 0.08
Anti-CD28 Fab signal (phage binding ELISA) [4]: 2.22

DIRWCTPPWMCMHL [Phage-2822 (Peptide-180 library clone)]
phage binding ELISA signal (Anti-PSMA Fab, PSMA antigen present) (PSMA Fab (006 PSMA Fab) [1]): 0.258
Phage binding ELISA signal, Anti-PSMA Fab (PSMA Fab (006 PSMA Fab) [2]): 0.486

VPKWCTPSWMCEFT [Phage-2811]
Phage binding ELISA signal, Anti-PSMA Fab (PSMA Fab (006 PSMA Fab) [5]): 0.56
Phage binding ELISA signal, Anti-PSMA Fab in presence of PSMA (PSMA Fab (006 PSMA Fab) [6]): 0.0648

DVKWCTPRWMCELS [Phage-2829 (Peptide-180 library clone)]
phage binding ELISA signal (Anti-PSMA Fab, PSMA antigen present) (PSMA Fab (006 PSMA Fab) [1]): 0.0913
Phage binding ELISA signal, Anti-PSMA Fab (PSMA Fab (006 PSMA Fab) [2]): 0.457

B1: Phage-2803 (peptide)
peptide: VKHVCMPEWMCYWS
modifications: cysteine pairing not given here; also: fused to pIII, displayed on bacteriophage
Phage binding ELISA signal, Anti-PSMA Fab (PSMA Fab (006 PSMA Fab) [5]): 0.57
Phage binding ELISA signal, Anti-PSMA Fab in presence of PSMA (PSMA Fab (006 PSMA Fab) [6]): 0.0724

SVHMCKPPWMCQSM [Phage-2818]
Phage binding ELISA signal, Anti-PSMA Fab (PSMA Fab (006 PSMA Fab) [5]): 0.509
Phage binding ELISA signal, Anti-PSMA Fab in presence of PSMA (PSMA Fab (006 PSMA Fab) [6]): 0.077

NTNWCTPPWMCEGL [Phage-2834 (Peptide-180 library clone)]
phage binding ELISA signal (Anti-PSMA Fab, PSMA antigen present) (PSMA Fab (006 PSMA Fab) [1]): 0.0664
Phage binding ELISA signal, Anti-PSMA Fab (PSMA Fab (006 PSMA Fab) [2]): 0.442

SSNWCTPAWMCVTS [Phage-2826 (Peptide-180 library clone)]
phage binding ELISA signal (Anti-PSMA Fab, PSMA antigen present) (PSMA Fab (006 PSMA Fab) [1]): 0.0627
Phage binding ELISA signal, Anti-PSMA Fab (PSMA Fab (006 PSMA Fab) [2]): 0.47

GDKWCKPSWMCDFF [Phage-2816]
Phage binding ELISA signal, Anti-PSMA Fab (PSMA Fab (006 PSMA Fab) [5]): 0.526
Phage binding ELISA signal, Anti-PSMA Fab in presence of PSMA (PSMA Fab (006 PSMA Fab) [6]): 0.072

IDKWCVPAWMCSPA [Phage-2815]
Phage binding ELISA signal, Anti-PSMA Fab (PSMA Fab (006 PSMA Fab) [5]): 0.538
Phage binding ELISA signal, Anti-PSMA Fab in presence of PSMA (PSMA Fab (006 PSMA Fab) [6]): 0.06

GEKWCSPAWMCEWL [Phage-2828 (Peptide-180 library clone)]
phage binding ELISA signal (Anti-PSMA Fab, PSMA antigen present) (PSMA Fab (006 PSMA Fab) [1]): 0.0817
Phage binding ELISA signal, Anti-PSMA Fab (PSMA Fab (006 PSMA Fab) [2]): 0.459

WENWCIPQWMCGTA [Phage-2807]
Phage binding ELISA signal, Anti-PSMA Fab (PSMA Fab (006 PSMA Fab) [5]): 0.565
Phage binding ELISA signal, Anti-PSMA Fab in presence of PSMA (PSMA Fab (006 PSMA Fab) [6]): 0.141

EAKWCTPPWMCSLV [Phage-2817]
Phage binding ELISA signal, Anti-PSMA Fab (PSMA Fab (006 PSMA Fab) [5]): 0.525
Phage binding ELISA signal, Anti-PSMA Fab in presence of PSMA (PSMA Fab (006 PSMA Fab) [6]): 0.0546

FSKLCTPPWMCSVS [Phage-2813]
Phage binding ELISA signal, Anti-PSMA Fab (PSMA Fab (006 PSMA Fab) [5]): 0.543
Phage binding ELISA signal, Anti-PSMA Fab in presence of PSMA (PSMA Fab (006 PSMA Fab) [6]): 0.276

B2: Phage-2819 (Peptide-180 library clone) (peptide)
peptide: IDKWCKPVWMCADN
modifications: cysteine pairing not given here; also: fused to pIII, displayed on bacteriophage
phage binding ELISA signal (Anti-PSMA Fab, PSMA antigen present) (PSMA Fab (006 PSMA Fab) [1]): 0.0659
Phage binding ELISA signal, Anti-PSMA Fab (PSMA Fab (006 PSMA Fab) [2]): 0.5

PMKWCTPPWMCSYS [Phage-2814]
Phage binding ELISA signal, Anti-PSMA Fab (PSMA Fab (006 PSMA Fab) [5]): 0.538
Phage binding ELISA signal, Anti-PSMA Fab in presence of PSMA (PSMA Fab (006 PSMA Fab) [6]): 0.063

GLPWCVPQWMCVVS [Phage-2824 (Peptide-180 library clone)]
phage binding ELISA signal (Anti-PSMA Fab, PSMA antigen present) (PSMA Fab (006 PSMA Fab) [1]): 0.0721
Phage binding ELISA signal, Anti-PSMA Fab (PSMA Fab (006 PSMA Fab) [2]): 0.482

QAIWCIPDWMCVQN [Phage-2830 (Peptide-180 library clone)]
phage binding ELISA signal (Anti-PSMA Fab, PSMA antigen present) (PSMA Fab (006 PSMA Fab) [1]): 0.137
Phage binding ELISA signal, Anti-PSMA Fab (PSMA Fab (006 PSMA Fab) [2]): 0.454

EFKWCSPAQLCVNG [Phage-2832 (Peptide-180 library clone)]
phage binding ELISA signal (Anti-PSMA Fab, PSMA antigen present) (PSMA Fab (006 PSMA Fab) [1]): 0.0526
Phage binding ELISA signal, Anti-PSMA Fab (PSMA Fab (006 PSMA Fab) [2]): 0.447

B3: Phage-2820 (Peptide-180 library clone) (peptide)
peptide: FEKWCTPLWMCADS
modifications: cysteine pairing not given here; also: fused to pIII, displayed on bacteriophage
phage binding ELISA signal (Anti-PSMA Fab, PSMA antigen present) (PSMA Fab (006 PSMA Fab) [1]): 0.0612
Phage binding ELISA signal, Anti-PSMA Fab (PSMA Fab (006 PSMA Fab) [2]): 0.5

MEKWCTPRWMCVGM [Phage-2808]
Phage binding ELISA signal, Anti-PSMA Fab (PSMA Fab (006 PSMA Fab) [5]): 0.565
Phage binding ELISA signal, Anti-PSMA Fab in presence of PSMA (PSMA Fab (006 PSMA Fab) [6]): 0.0734

VGPWCIPDWMCDVV [Phage-2812]
Phage binding ELISA signal, Anti-PSMA Fab (PSMA Fab (006 PSMA Fab) [5]): 0.554
Phage binding ELISA signal, Anti-PSMA Fab in presence of PSMA (PSMA Fab (006 PSMA Fab) [6]): 0.0755

WDNWCTPSWMCSTA [Phage-2821 (Peptide-180 library clone)]
phage binding ELISA signal (Anti-PSMA Fab, PSMA antigen present) (PSMA Fab (006 PSMA Fab) [1]): 0.0814
Phage binding ELISA signal, Anti-PSMA Fab (PSMA Fab (006 PSMA Fab) [2]): 0.488

AFPSCIPEWMCSGM [Phage-2831 (Peptide-180 library clone)]
phage binding ELISA signal (Anti-PSMA Fab, PSMA antigen present) (PSMA Fab (006 PSMA Fab) [1]): 0.149
Phage binding ELISA signal, Anti-PSMA Fab (PSMA Fab (006 PSMA Fab) [2]): 0.45

MMHWCTPPWMCEFS [Phage-2805]
Phage binding ELISA signal, Anti-PSMA Fab (PSMA Fab (006 PSMA Fab) [5]): 0.568
Phage binding ELISA signal, Anti-PSMA Fab in presence of PSMA (PSMA Fab (006 PSMA Fab) [6]): 0.0626

GATWCTPTWMCTGF [Phage-2806]
Phage binding ELISA signal, Anti-PSMA Fab (PSMA Fab (006 PSMA Fab) [5]): 0.566
Phage binding ELISA signal, Anti-PSMA Fab in presence of PSMA (PSMA Fab (006 PSMA Fab) [6]): 0.117

YHKWCTPEWMCVFD [Phage-2825 (Peptide-180 library clone)]
phage binding ELISA signal (Anti-PSMA Fab, PSMA antigen present) (PSMA Fab (006 PSMA Fab) [1]): 0.0666
Phage binding ELISA signal, Anti-PSMA Fab (PSMA Fab (006 PSMA Fab) [2]): 0.474
